# Several values for one entry are separate records, joined by “and”; a condition that tells them apart may be missing. Equal values may be shown once. Entries after “also recorded” stand apart in the source; their conditions may differ. Read-outs that look alike come from different tables or passages of the source.
# Legend:
# [1] = test system: male Sprague Dawley rats exposed to 3dRH (rat model of HAAF); type: in vivo
# Method: For Experiment 5, a total of 21 rats were subjected to a three day recurrent hypoglycemia (3dRH) paradigm adapted from previous studies (44). […] On each of the three days of the paradigm, all rats received an IP injection of either PBS or leptin at ≈1.5 h prior to lights off. […] On the fourth day, all three cohorts of rats were then subjected to a hypoglycemic ITT for determination of hypoglycemia-induced epinephrine, glucagon, and corticosterone secretion. Leptin levels were also assayed in each group at the conclusion of the ITT. […] For mice, trunk blood was collected following CO2 euthanasia. […] Louis, Mo.). […] Rat leptin levels were determined by […], MilliporeSigma, St. Louis, Mo.). […] Methods: In experiment one, 3 groups of mice (two CR groups and one ad-lib fed control group) received either twice daily leptin (0.5-1 μg/g, IP) or PBS. In experiment two, 3 groups of rats (two 3dRH and one control) received daily leptin or PBS injections (0.3-0.7 mg/kg, IP).
# [2] = test system: rats exposed to a single bout of hypoglycemia or 3dRH; settings: cited from earlier work
# [3] = test system: male C57BL/6J mice exposed to 60% caloric restriction (CR mice); type: in vivo, mouse
# Method: In order to overcome differences in baseline blood glucose levels between groups, a variable dose of insulin (IP) was used to produce equivalent exposure to hypoglycemia (A). […] Data were analyzed via one or two way ANOVA. Group differences were determined via Bonferroni's multiple comparison test with significance levels as follows: *- p<0.05; n=7-8/group. A total of 149 mice were subjected to the severe caloric restriction and refeeding paradigm across four separate experiments. The following procedures were identical across all four experiments. Animals were randomly assigned to one of two groups: Mice exposed to severe caloric restriction for six days (CR mice) or ad libitum fed mice (Ad-lib mice). […] Following a five-day acclimation period to wire-bottomed cages (Days 0-4), food intake was monitored daily in each mouse for six days prior to initiation of caloric restriction, and each mouse's average daily food intake was determined (Days 5-10). […] Body weight and free-living blood glucose were measured daily immediately prior to feeding. […] During the refeeding period, food intake, free-living blood glucose, and body weight continued to be measured daily at 1.5 h before lights off in both CR and Ad-lib mice up to the terminal day of the experiments. […] Rat leptin levels were determined by […], MilliporeSigma, St. Louis, Mo.). […]
# starved rats = settings: acute leptin infusion during starvation, cited from earlier work
# [4] = acute ICV leptin in 3dRH rats, first 40 min of 90 min hypoglycemic challenge, relative to 3dRH rats not treated with leptin
# [5] = acute ICV leptin infusion, rats exposed to a single bout of hypoglycemia
molecule,measurement,setting,value
"leptin (protein, UniProt P50596 22-167, looked up, hormone secreted by adipocytes) Leptin: VPIHKVQDDTKTLIKTIVTRINDISHTQSVSARQRVTGLDFIPGLHPILSLSKMDQTLAVYQQILTSLPSQNVLQIAHDLENLRDLLHLLAFSKSCSLPQTRGLQKPESLDGVLEASLYSTEVVALSRLQGSLQDILQQLDLSPEC",hypoglycemia-induced glucagon levels,[1]; 3dRH paradigm with leptin,not affected
same,hypoglycemia-induced glucagon levels,"[1]; 3dRH+Leptin rats, 60 min of ITT, mean (SD)",34 pmol/L
same,increase of epinephrine levels relative to untreated 3dRH rats,[1]; leptin concurrent with antecedent hypoglycemia,50%
same,leptin levels at the 60-minute time point relative to controls,"[1]; rat, in vivo",significantly increased
same,serum leptin levels at the conclusion of the ITT,"[1]; rat, in vivo",5.1 ng/mL
same,epinephrine levels increased by,[2]; [4],25%
same,glucagon levels increased by,[2]; [4],45%
same,epinephrine levels increased by,[2]; [5],19%
same,glucagon levels decreased by,[2]; [5],50%
same,rescue of counter-regulation by acute leptin,"[2]; acute leptin administration, 3dRH rats",did not restore counter-regulation; also recorded: does not reverse the effects of 3dRH; also recorded: did not correct the deficit in epinephrine release; also recorded: does not rescue the effect
same,epinephrine levels lower than untreated rats exposed to a single bout of hypoglycemia,[2]; leptin treated 3dRH rats,60%
same,hypoglycemia-induced glucagon levels,"[3]; CR+Leptin mice, twice daily IP leptin 0.5-1 μg/g during CR, 60 min of ITT, Day 1 of refeeding, mean (SD)",91.7 pmol/L and 78.1 pmol/L
same,serum glucagon levels in response to the ITT,"[3]; Example 7, leptin-treated CR mice, 0.5-1 μg/g IP twice daily, after 16 h refeeding and 6 h fast",78.0 ± 16.8 pg/mL
same,effect on blood glucose,starved rats; physiological doses,reducing blood glucose
same,effect on blood glucose,starved rats; supraphysiological doses,increasing blood glucose

# From patent US20220288169A1, “COMPOSITIONS AND METHODS FOR THE TREATMENT AND PREVENTION OF HYPOGLYCEMIC COMPLICATIONS” (The Board of Supervisors of Louisiana State University and …, priority 2019, published 2022)
